Assay results taken from patent US20220002410A1 (Merck Sharp & Dohme, published 2022).

Biological target: MK-3475-596 (MK-3475 derivatized with fluorescent dye Dylight-596) (Dylight-596 amine-reactive dye, reacts preferentially with the primary amine of lysine residues (sites not given))
Assay: FRET between Dylight-488 labelled Ab6 and Dylight-596 labelled MK-3475, recorded for 72 hours (ex 488 nm, em 620 nm)
Method: Dylight-488® or Dylight-596® are amine-reactive dyes, which react preferentially with the primary amine of lysine residues. […] Due to the sensitivity of the assay, the molar concentration of the fluorogenic tagged proteins is either 3.2 uM or 800 nM depending on the protein ratio. FRET fluorescence signals are recorded for 72 hours at λₑₘ=620 nm (λₑₓ=488 nm) (FIG. 49).
If protein interaction occurs, we expect to see a growth of the fluorescence signal as a function of time (FIG. 49). The interaction is evaluated by the rate of growth of the fluorescence and the maximum of the fluorescence signal. The absence of interaction (or a reduced interaction) is characterized by i) a low rate of the growth of the fluorescence signal, and ii) a low plateau maximal. […] The fluorescence baseline is measured in the absence of labeled protein.

Chain of MK-3475-596 (MK-3475 derivatized with fluorescent dye Dylight-596) (Dylight-596 amine-reactive dye, reacts preferentially with the primary amine of lysine residues (sites not given)) (VH, as listed by the source, chain 1 of 2): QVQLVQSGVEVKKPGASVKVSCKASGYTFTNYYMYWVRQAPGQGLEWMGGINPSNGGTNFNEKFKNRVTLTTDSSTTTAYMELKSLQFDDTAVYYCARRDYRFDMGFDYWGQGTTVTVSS
Chain of MK-3475-596 (MK-3475 derivatized with fluorescent dye Dylight-596) (Dylight-596 amine-reactive dye, reacts preferentially with the primary amine of lysine residues (sites not given)) (VL, as listed by the source, chain 2 of 2): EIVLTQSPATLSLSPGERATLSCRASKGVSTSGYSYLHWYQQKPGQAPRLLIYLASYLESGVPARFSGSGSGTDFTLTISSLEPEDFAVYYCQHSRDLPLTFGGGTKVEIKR

B1: Ab6-488 (Ab6 derivatized with fluorescent dye Dylight-488) (antibody, human IgG4 S228P, kappa, V domains shown)
VH: QMQLVQSGPEVKKPGTSVKVSCKASGYTFTDYNVDWVRQARGQRLEWIGDINPNDGGTIYAQKFQERVTITVDKSTSTAYMELSSLRSEDTAVYYCARNYRWFGAMDHWGQGTTVTVSS
VL: DIVMTQTPLSLSVTPGQPASISCKASQSLDYEGDSDMNWYLQKPGQPPQLLIYGASNLESGVPDRFSGSGSGTDFTLKISRVEAEDVGVYYCQQSTEDPRTFGGGTKVEIKR
modifications: Dylight-488 amine-reactive dye, reacts preferentially with the primary amine of lysine residues (sites not given)
binding result: no binding
